The target in assay [1] is human Mcl-1 ΔPESTΔTM (human). Briefly: NMR titration.
For assay [2], the target named is human Mcl-1 ΔPESTΔTM (human). The assay can be described thus: NMR titration. The source holds these as a separate data set.
The target of assay [3] is human Mcl-1 ΔPESTΔTM (human). The assay can be described thus: SEC + other: SAXS.

Where two headings read alike, the source gives them in different places.

For Mule BH3 peptide (MuleBH3), in assay [1], the relative population of Mcl-1 bound, in the mix of three peptides worked out at 55%.

In assay [2], DEMFSIIYKIREIADGLCLEVE [TCTP BH3-like peptide D16I mutant (TCTP_(BH3D16I))] returned a relative population of Mcl-1 bound, in the mix of three peptides of 45%.

B1: full length human TCTP (Translationally Controlled Tumour Protein) (natural protein)
chain: MIIYRDLISHDEMFSDIYKIREIADGLCLEVEGKMVSRTEGNIDDSLIGGNASAEGPEGEGTESTVITGVDIVMNHHLQETSFTKEAYKKYIKDYMKSIKGKLEEQRPERVKPFMTGAAEQIKHILANFKNYQFFIGENMNPDGMVALLDYREDGVTPYMIFFKDGLEMEKC
B1: in assay [3], the stoichiometry N (in general, the number of molecules, sites or subunits per partner or assembly) worked out at 1.

As to DEMFSDIYKIREIADGLCLEVE [TCTP BH3-like peptide (TCTPBH3)], in assay [2], the Kd (commonly the free concentration of one partner at which half of the binding sites on the other are occupied at equilibrium, for simple one-to-one binding) was 7.9 µM; the fold weaker relative affinity than TCTPBH3D16I and MuleBH3 is over 10 fold.

Source of the values: publication doi:10.1101/2022.11.05.515280.
